Source: the domain aggregation screens of Martell et al. (2025)

Assay: soluble fraction after stress (log2 fold change); higher = more stays soluble; pooled small domains, quantitative proteomics
Conditions: stress: 75 degC
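Also: 20 min heating vs room temperature control held 20 min.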

Row | Sequence | soluble fraction (log2)
1 | HMLNDKLQTLFSLFPAVDKDLKKKGVTRQILWEQYKRNHPDGVGRSQFNYYYAQWKDQVNPT | -1.02
2 | HMLNDMYAVMEIRGQGGELIAKLINQDGSPFYVKKGTTLQSGHVIDEITTTYVRAEKAGAKDYLYF | -0.939
3 | HMLNDTGAIRAAVEEVLAANEKSVNEYKGGKTQAFQYLIGQSMRALRGKAPAQEVTKLLKELLG | -0.564
4 | HMLNQIGVSQKEFDQIHTAIKIALKTSSLTPTGITEKLPKFPPEKTADILRWMADNKEVLLNSEEKYELKT | -0.297
5 | HMLPAGAAAPLEDGSAPEGYTVKGNADSGLYHEPDGRWYDATVAEFWFKTAADAEAAGFRKAGS | 0.149
6 | HMLPDGEAFVKVNTSLNIRTGPWGQIVGWFHNNDKVKIIGRDGDWYKISHNGQTRYIHSRYVSSSR | -1.2
7 | HMLPDHAPITMRQLAMLHVAKNKLDLTDEDYRSLLLLYGGVESSKQLNQEGLRRVLDRFKELGFEP | -0.45
8 | HMLPDLLNGRVIPSPEKVIRARLNRGVWELLVQWVGRAPSDATWENLLEFKSAYPSVQLEDALF | -1.97
9 | HMLPDLQKAIDTFLYEVDSRINTSFEELIDKLNSKEEAVAFFLALLEAVRWGFIKAEQESNSINIKK | -0.898
10 | HMLPDSQLMKEATAWFMRQAADDFSGAERRRLDAWRAQSPAHARAYHQVQALWNAPELQQAAAR | -0.113
11 | HMLPEGIENGDVLTRTDALDYRKWLVTGNQKRIFASTASFYGENFNYSEVKAVSDRVLDAIPDGEPV | -0.0413
12 | HMLPFGHTRLEDGTIQEIPEQIALARKVAEMYKAGFPVMQISIKTEGLLTPRQIYGLMNHWGVKR | -1.3
13 | HMLPIKLDLEIGENVRVVSGPLENFVGSVVSFDTDQQKVKLVVEMFGRKTPVELDFIEVQKLR | -2.24
14 | HMLPIMDRLITAGISINTAKKWVDKFGDKRIKQNLAYSLAKQKEGKVKTNFVGYLAKAIEEDWGSGWE | -1.5
15 | HMLPKAERREQLMAVARSVFAEQGYHTTSMEIIAETAGVSKPLLYQHFPSKLDLYLALLDAGID | -1.8
16 | HMLPKILVMDGKVNKNALTTLGKDEEWVKKVLRNHNIHSIKDVLLALYDTKGKFQYQLYDDYEK | -0.248
17 | HMLPKNITNTIDHWIQKFPQGKQRSAIIAALHAVQHHNKGFLTNDLLNQVADYIDVPKMNVYEVATFYSM | 0.169
18 | HMLPLIEVPAVTGKYLTKAKSALKDAGLDTGDIKRVEHEEHGENYVLKQDPPAGTKVPFGTTVSLTVVAP | 0.427
19 | HMLPLLEYLDPFTGKKTYTYLNPDTQHPIFTYYSYQDDKTGRTAYSYIDPLTGKAVNSDEPPMDILYD | -0.676
20 | HMLPPHMEVRAIMILDKRPMALMNIEGEGDGLIVSPGYRFGDGRGRVVSITQTKVVVLWAGTSMEL | -2.82
21 | HMLPQYELIKQYLRHQIETGEWPIGYRTPSEPKLAEQFSVSRMTARRALQELADQGLLSRTAGSGTFVAKP | -0.921
22 | HMLPVQGEEVAPGLYKFDFPFLADKRVWEKTINAFKAEHPELKVNYIYTGPDELNSKKKTHVLVYVFTES | -0.539
23 | HMLPVYSITEAAERLDIPASTIKWYADRFASYISPSKGKGRKRFTPEDLATLQKIHELSQDHTTEEAEAML | -0.0974
24 | HMLPYKGTVAVSLAVLHKAVGVGTADMLKAVGTLRQGTEVTVTGRNGPFAQLKNGLWMKESFLE | -1.07
25 | HMLQADALADPVGWALRTLGFDLEAGTPERSAIQRSFRQSLIEAHPDHGGADDEAAQRIADITEARRILLA | -0.403
26 | HMLQFTYPRLHTKKSWYVDFMSFDPGAGKMRRKKFMLDGIPKITDRRKRAAELIEVLTKQLRAGWSPWVNV | -3.85

Row | Sequence | soluble fraction (log2)
27 | HMLQIADEYLDRLQALFEDVRDNHFAIGDLLVELVDMHDSRRVDVINYIAGRLAISPTTLYDYENTARR | -1.15
28 | HMLQLDATDRALIVATQGGLPLVPRPYQVVGEQLGISGEEVVARLRALLDAGVIRRIGAVPN | -0.569
29 | HMLQLKEPLKKVYERLTPVPKTAETILAELWEKGEYLDIAALHRALMELELSGYVRQSSPGYFGTSA | -0.553
30 | HMLQQKESAALGERLLNQALATLKVEPDAISWDRWEALAKEYGAKSQLDILADIGLGKRLSFVVAQALTKV | -1.25
31 | HMLRDMIIQSYRYYTDKERNPRQVWNRMEADAFWEIIRDYEGYNGDGYVHTKIIPEMEALTVIEMDN | -1.83
32 | HMLRISLAAARVNAEMTQEDVAREMHVSKNTVVNWEKGKSEPTISQSRELSKLYNMPLEYIFYL | -2.68
33 | HMLRKTTDLDAIRSVAKDVIDQNPKAVEDYVGGKESAIGFLLGQVMRATKGTADANTVRELLKEILDS | 1.01
34 | HMLRPMVAILNKNISKGQVISEDYIKFEVRPERQIHGAYHDISEVLGRKTKNNIAAGTILKVRHLDT | -0.69
35 | HMLRQVSDSNALETAVKKVLDANPEEVERYKSGNKKLISFFVGQTMKATKGAGNPKEINSILAKLL | -0.326
36 | HMLSAEAAAARTAISTLSEDQQRVLGLSIQRGLVHEQIARATGLPLGTVKTHIRRGLIKVREALEAQAAG | 0.00212
37 | HMLSAGETYTLGYLKASDGILFTAADGSEQTVMQRVQVRLYDNGDGTYTARLADDIAYSAVVTEDMIDK | 0.27
38 | HMLSDAAAMESIAYEAIRQMEPDTYYIIGAGTTTRGIMEVLGLKNTLIGVDLIRNKELVANDLGGKELLSY | 0.0782
39 | HMLSDEDMMELAIIENLQRENLNPIEEARAYESLIDKGFTHTEIADKMGKSRPYISNSIRLLSL | 0.355
40 | HMLSDFHLNHDSIVNHTVQKKETIFSLSKKYGLSINEIIKANPGIQIDKLKRRSILIIPLRKK | -1.81
41 | HMLSDLTPGDLVVHATHGIGRFLGIRKLELEGMTKDYITIQYRGNENLYVPVTQMDLVSRYI | -1
42 | HMLSGGEVKRIEIATILARKSGLMIFDEPEAGIDLWSFARLVETFEDIRSNTSGSLVIISHQ | 0.0709
43 | HMLSKEERRSQLLDLGVRLLSTRSLDELSIDLLAEEAGISRGLLYHYFGNKHDFHEAVVRRAADDLI | -2.15
44 | HMLSLKAQVYEIIRQKILQQEYALGEKINIDTVADELKISNSPIREALMMLSQDGLIEMVPNNGARVI | -1.88
45 | HMLSLSDIINDVMERLTREKNLTFDELLGEKRERRRIVYTFLALLELIRLKMIKAYQTAAFGVIRIFPR | -1.4
46 | HMLSLTSRQQEIFDLIKGHIKKTGMPPTRSEIALHFGFRSANSAEEHLRALARKGFIELIPGTSRGIKLIE | -1.87
47 | HMLSPPWYEYHRKVQAMFGRDPEVHIKDLDDLGDGKFSYMILVYNKEKAEAIKAILPQKVEMGNVTIETAI | -1.87
48 | HMLSRNEWLVMEALWERPSTLMELVRQLGQEPPGWAKSTTATMVRRMEEKGLIRHEAGSKARVYHP | -1.82
49 | HMLSSAAAIDRILAGGTAAMNHRQFDAALTSFNTVIEMRPDFAEGWNKRATLYYLIGEYERSIADVERTLA | 0.183
50 | HMLSTRERMSSLMAQLQVQQFMPFHRLFTISEGRMGVIVTFLAMMELVKENLIKLIQAQEYGPIHVSLG | 0.467
51 | HMLSVRERMSAILVSLEGERYADFTGLFDPTEGKGGVTVTFLAILELLKESMIDVVQNELYGPIHVRAA | -1.07
52 | HMLSVRNRMSDVLKSLDDGEFHRFESLFNLEEGRLGVVVTFLAMLELAKEMLVEIVQNESLGPIYLKSR | 0.041

Row | Sequence | soluble fraction (log2)
53 | HMLSVRQRMGELLERLADGQFHRFESLFTVEEGKLGVVVTFLGLLTLAKEQLLDIVQEGPTAPIYVKSLA | -0.569
54 | HMLSVTLTVLPQQAGERLDAFAAAESTLSRSAAAKLIEDGQITVNGARAAKNYRLRAGDVIEIDEPEPI | -0.0471
55 | HMLTAPMPGTIQQILVTKGQKVRSGQTLMILEAMKMEHKIKAPNSGEIISINYSLGNRVEMGANLIEI | -2.1
56 | HMLTDAAAVKRSVRNLVQYGFYEKPFHPEIGSGVRDLLFENMTPFVANNLSKQIEEIITNYEPRA | -0.314
57 | HMLTDMSKIRKVLKLYGKGNSKLFISTYLSLSRNTVKKYISLFEVSGKTIEEILAKSDSELELLFSG | -0.981
58 | HMLTEREQDTLNFIRQYIDEQGRSPLVSEIAKGLGIKSQGTTHRYIQALVDAGLLERHVGRTRGLHLT | -0.0653
59 | HMLTGADAEKATAAAQAEFPGGTVLRVETDADGTYEAHVRKADGTEVEVKMDKDFKVTSVEE | 0.142
60 | HMLTLAVPNSINMRLDKYLSENIDYLSRSKIQGLINDGKVTINGENEKSSYKLNGDESIVIYYEE | -0.377
61 | HMLTPQEIGSRLKLVRQGLQLKQQEVAEIIGTSQLKISKIEQGATVTTPDFLKLLAFYSQSVSLDILF | -0.546
62 | HMLTRQRKQLLEYLSKHTDEQMTARQIADALTAESISISAVYRNLSALEEEGILKRSIRENTREVYYQYIA | -1.57
63 | HMLTSIDQMLKLAMPDSDITVSKMNGLILLTGTVKAPEDAAEAERLVQAFSAPPPGQPPVTVVSRLRTA | -0.402
64 | HMLTTMSSQWKPSLDAIEILEKSGIAYSFIEDAIPEFVLYWRERGISHGAWNTKFVEHIRKQWAKFEAS | -1.73
65 | HMLTTVAAQRAALHQEEDITKLREIILKLVPFWGLDGGAYADKETSIQLERQYRESFDQAVSAARRSGQA | -0.335
66 | HMLTWNQLGLITKPVVFLDGTGYYARLFEAFEHMISTGFVKENYRAMMNRATSVEEAVRIASSPAPKVD | -0.0438
67 | HMLVGGPDTPSKVTVSFDLGSRQAVDELTERAGAAGGRIGDIDDYPFMYQRQFDDPDGYHYSPFWMKP | -0.177
68 | HMLVTQSITVPMAMSGIRLDAALAMLFPDHSRNRLKAWLDDGHILVDGAVWAGKQRLEGNEEITATLPEAK | -0.673
69 | HMLYDNQLPDWAGQMVKNHGLTISPKALVILVDHIGNDLSRIENEIEKLMLNLGTRKSITEDDVEN | -1.61
70 | HMLYETLKKGDQGTSVKTLQEKLKALGYLTGAADGKYGAGTETAVKSFQKAAGLTETGTADPETLSAVYAA | 0.619
71 | HMLYITEIQKKIMDAFLVVANESNSGTRITMNEIANKVRMTPQAIYRKHFKSVIEISDTIRD | -0.551
72 | HMMEERVIEFANVLRRNGVRVSLAENMDAFRALKSLGISDPLLFRHALRATLIKRGSDIQPFEELFDFFFL | -1.42
73 | HMNAAFMKAERLLAILNILLTGKRVSSTELAKKLEVSVRTVYRDVEALSEAGFPVYATMGRDGGFGLIEGF | -2.09
74 | HMNADAIIGRMGKVTEPITPDGYGRVEIDGDSWKATAVGGVAIAEGTRVSVVSLDSIIITVKTV | -1.44
75 | HMNADAIVGRTGVVTEAIAADGFGRVQIDGDSWKAKASGNNGIDVGAKVRVLRIDSIILTVEK | -1.07
76 | HMNAELSTVQAAEVLNVSRPFLIKLLEDGAIPHRKVGKHRRVRMEDVMSYKAAIDTEREAVLDQLAA | -0.13
77 | HMNAISIDEAKKIALAKVSGASDQHIRIEADHDDGRLVYEGEIHYGRVEYEFEIDGSTGAIIEWDADRK | -0.286
